Experiment: specific initial activity, cyclohex-2-enone reduction (U mg-1); higher = more active
Protocol: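 Specific initial activity of purified ene reductases with 10 mM cyclohex-2-enone and 0.2 mM NAD(P)H in 50 mM sodium phosphate pH 7.4 with 0-45% (v/v) ethanol or methanol, at set reaction temperatures of 25-45 °C. NAD(P)H depletion was followed at 340 nm for 480 s, in triplicate.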

MSFVKDFKPQALGDTNLFKPIKIGNNELLHRAVIPPLTRMRALHPGNIPNRDWAVEYYTQRAQRPGTMIITEGAFISPQAGGYDNAPGVWSEEQMVEWTKIFNAIHEKKSFVWVQLWVLGWAAFPDNLARDGLRYDSASDNVFMDAEQEAKAKKANNPQHSLTKDEIKQYIKEYVQAAKNSIAAGADGVEIHSANGYLLNQFLDPHSNTRTDEYGGSIENRARFTLEVVDALVEAIGHEKVGLRLSPYGVFNSMSGGAETGIVAQYAYVAGELEKRAKAGKRLAFVHLVEPRVTNPFLTEGEGEYEGGSNDFVYSIWKGPVIRAGNFALHPEVVREEVKDKRTLIGYGRFFISNPDLVDRLEKGLPLNKYDRDTFYQMSAHGYIDYPTYEEALKLGWDKK
specific initial activity
Conditions	co-solvent: ethanol	co-solvent: methanol
co-solvent concentration (% v/v): 0, reaction temperature 25 °C	0.2	0.24
co-solvent concentration (% v/v): 0, reaction temperature 30 °C	0.23	0.21
co-solvent concentration (% v/v): 0, reaction temperature 35 °C	0.36	0.37
co-solvent concentration (% v/v): 0, reaction temperature 40 °C	0.33	0.23
co-solvent concentration (% v/v): 0, reaction temperature 45 °C	0.1	0.07
co-solvent concentration (% v/v): 5, reaction temperature 25 °C	0.28	0.21
co-solvent concentration (% v/v): 5, reaction temperature 30 °C	0.32	0.29
co-solvent concentration (% v/v): 5, reaction temperature 35 °C	0.47	0.46
co-solvent concentration (% v/v): 5, reaction temperature 40 °C	0.34	0.25
co-solvent concentration (% v/v): 5, reaction temperature 45 °C	0.17	0.12
co-solvent concentration (% v/v): 10, reaction temperature 25 °C	0.27	0.3
co-solvent concentration (% v/v): 10, reaction temperature 30 °C	0.37	0.36
co-solvent concentration (% v/v): 10, reaction temperature 35 °C	0.52	0.52
co-solvent concentration (% v/v): 10, reaction temperature 40 °C	0.21	0.17
co-solvent concentration (% v/v): 10, reaction temperature 45 °C	0.12	0.08
co-solvent concentration (% v/v): 15, reaction temperature 25 °C	0.32	0.33
co-solvent concentration (% v/v): 15, reaction temperature 30 °C	0.36	0.4
co-solvent concentration (% v/v): 15, reaction temperature 35 °C	0.52	0.55
co-solvent concentration (% v/v): 15, reaction temperature 40 °C	0.09	0.09
co-solvent concentration (% v/v): 15, reaction temperature 45 °C	0.05	0.04
co-solvent concentration (% v/v): 20, reaction temperature 25 °C	0.36	0.37
co-solvent concentration (% v/v): 20, reaction temperature 30 °C	0.35	0.43
co-solvent concentration (% v/v): 20, reaction temperature 35 °C	0.32	0.4
co-solvent concentration (% v/v): 20, reaction temperature 40 °C	0.02	0.02
co-solvent concentration (% v/v): 20, reaction temperature 45 °C	0.02	0.01
co-solvent concentration (% v/v): 25, reaction temperature 25 °C	0.27	0.31
co-solvent concentration (% v/v): 25, reaction temperature 30 °C	0.21	0.3
co-solvent concentration (% v/v): 25, reaction temperature 35 °C	0.03	0.06
co-solvent concentration (% v/v): 25, reaction temperature 40 °C	0.01	0.02
co-solvent concentration (% v/v): 25, reaction temperature 45 °C	0.01	0.02
co-solvent concentration (% v/v): 30, reaction temperature 25 °C	0.15	0.19
co-solvent concentration (% v/v): 30, reaction temperature 30 °C	0.15	0.14
co-solvent concentration (% v/v): 30, reaction temperature 35 °C	0.02	0.01
co-solvent concentration (% v/v): 30, reaction temperature 40 °C	0.01	0.01
co-solvent concentration (% v/v): 30, reaction temperature 45 °C	0.02	0
co-solvent concentration (% v/v): 35, reaction temperature 25 °C	0.07	0.03
co-solvent concentration (% v/v): 35, reaction temperature 30 °C	0.03	0.04
co-solvent concentration (% v/v): 35, reaction temperature 35 °C	0.01	0.01
co-solvent concentration (% v/v): 35, reaction temperature 40 °C	0.01	0
co-solvent concentration (% v/v): 35, reaction temperature 45 °C	0.03	0
co-solvent concentration (% v/v): 40, reaction temperature 25 °C	0.02	0.02
co-solvent concentration (% v/v): 40, reaction temperature 30 °C	0.02	0.03
co-solvent concentration (% v/v): 40, reaction temperature 35 °C	0.01	0
co-solvent concentration (% v/v): 40, reaction temperature 40 °C	0.01	0.01
co-solvent concentration (% v/v): 40, reaction temperature 45 °C	0.01	0.01
co-solvent concentration (% v/v): 45, reaction temperature 25 °C	0.01	0.01
co-solvent concentration (% v/v): 45, reaction temperature 30 °C	0.04	0.03
co-solvent concentration (% v/v): 45, reaction temperature 35 °C	0.02	0.01
co-solvent concentration (% v/v): 45, reaction temperature 40 °C	0.01	0.01
co-solvent concentration (% v/v): 45, reaction temperature 45 °C	0.02	0

MNPKYKPLFEPFTFKSGVTINNRIAVAPMTHYASNEDGTISEAELDYIIPRSKEMGMVITACANVTPDGKAFPGQPAIHDDSNIPGLKKLAQAIQAQGAKAVVQIHHGGIECPSELVPQQDVVGPSDVFDNGKQIARALTEEEVENIVKAFGEATRRAIEAGFDGVEIHGANGYLIQQFYSPKTNQRTDRWGGSDEKRLAFPLAIVDEVKKAASEHAKGAFLVGYRLSPEEPETPGLTMTETYTLVDALGDKELDYLHISLMDVNSKARRGADPTRTRMDLLNERVGNKVPLIAVGSIHSADDALAVIENGIPLVAMGREILVDPNWTVKVKEGREKQIETVIKGTDKEKYHLPEPLWQAIVNTQGWVPYKD
specific initial activity
Conditions	co-solvent: ethanol	co-solvent: methanol
co-solvent concentration (% v/v): 0, reaction temperature 25 °C	0.8	0.66
co-solvent concentration (% v/v): 0, reaction temperature 30 °C	0.56	0.51
co-solvent concentration (% v/v): 0, reaction temperature 35 °C	0.24	0.25
co-solvent concentration (% v/v): 0, reaction temperature 40 °C	0.15	0.12
co-solvent concentration (% v/v): 5, reaction temperature 25 °C	0.77	0.61
co-solvent concentration (% v/v): 5, reaction temperature 30 °C	0.66	0.42
co-solvent concentration (% v/v): 5, reaction temperature 35 °C	0.27	0.2
co-solvent concentration (% v/v): 5, reaction temperature 40 °C	0.05	0.09
co-solvent concentration (% v/v): 10, reaction temperature 25 °C	0.95	0.69
co-solvent concentration (% v/v): 10, reaction temperature 30 °C	0.67	0.41
co-solvent concentration (% v/v): 10, reaction temperature 35 °C	0.28	0.14
co-solvent concentration (% v/v): 10, reaction temperature 40 °C	0.04	0.04
co-solvent concentration (% v/v): 15, reaction temperature 25 °C	0.96	0.65
co-solvent concentration (% v/v): 15, reaction temperature 30 °C	0.85	0.43
co-solvent concentration (% v/v): 15, reaction temperature 35 °C	0.21	0.1
co-solvent concentration (% v/v): 15, reaction temperature 40 °C	0.03	0.02
co-solvent concentration (% v/v): 20, reaction temperature 25 °C	0.99	0.66
co-solvent concentration (% v/v): 20, reaction temperature 30 °C	0.75	0.4
co-solvent concentration (% v/v): 20, reaction temperature 35 °C	0.17	0.1
co-solvent concentration (% v/v): 20, reaction temperature 40 °C	0.03	0.03
co-solvent concentration (% v/v): 25, reaction temperature 25 °C	0.88	0.6
co-solvent concentration (% v/v): 25, reaction temperature 30 °C	0.63	0.4
co-solvent concentration (% v/v): 25, reaction temperature 35 °C	0.08	0.05
co-solvent concentration (% v/v): 25, reaction temperature 40 °C	0.03	0.02
co-solvent concentration (% v/v): 30, reaction temperature 25 °C	0.63	0.55
co-solvent concentration (% v/v): 30, reaction temperature 30 °C	0.44	0.28
co-solvent concentration (% v/v): 30, reaction temperature 35 °C	0.04	0.04
co-solvent concentration (% v/v): 30, reaction temperature 40 °C	0.04	0.03
co-solvent concentration (% v/v): 35, reaction temperature 25 °C	0.45	0.44
co-solvent concentration (% v/v): 35, reaction temperature 30 °C	0.25	0.21
co-solvent concentration (% v/v): 35, reaction temperature 35 °C	0.02	0.02
co-solvent concentration (% v/v): 35, reaction temperature 40 °C	0.04	0.02
co-solvent concentration (% v/v): 40, reaction temperature 25 °C	0.23	0.2
co-solvent concentration (% v/v): 40, reaction temperature 30 °C	0.1	0.11
co-solvent concentration (% v/v): 40, reaction temperature 35 °C	0.04	0.07
co-solvent concentration (% v/v): 40, reaction temperature 40 °C	0.02	0.03
co-solvent concentration (% v/v): 45, reaction temperature 25 °C	0.11	0.04
co-solvent concentration (% v/v): 45, reaction temperature 30 °C	0.06	0.04
co-solvent concentration (% v/v): 45, reaction temperature 35 °C	0	0.04
co-solvent concentration (% v/v): 45, reaction temperature 40 °C	0.04	0.05

— the supplement of paper PMC11208486
